Measurements reported in patent publication US20240279331A1 (University of California, published 2024).

T1: NCR3 (antigen of the ELISA in the affinity-maturation table) (human, UniProt O14931 19-135, limits assumed)
T1 construct: also called Natural Cytotoxicity Triggering Receptor 3
T1 sequence (looked up): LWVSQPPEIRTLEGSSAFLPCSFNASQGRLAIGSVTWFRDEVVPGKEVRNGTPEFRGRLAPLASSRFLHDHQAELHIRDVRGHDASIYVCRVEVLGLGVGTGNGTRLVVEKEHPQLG

T2: NCR3 on cell (on-cell binding in the affinity-maturation table) (human, UniProt O14931 19-201, limits assumed)
T2 construct: On cell
T2 sequence (looked up): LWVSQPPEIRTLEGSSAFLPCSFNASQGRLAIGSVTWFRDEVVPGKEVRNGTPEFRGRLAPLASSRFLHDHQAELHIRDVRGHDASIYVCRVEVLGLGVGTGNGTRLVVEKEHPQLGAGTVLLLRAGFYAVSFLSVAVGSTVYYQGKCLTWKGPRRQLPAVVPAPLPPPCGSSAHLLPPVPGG

T3: CD244 extracellular domain fused to a generic transmembrane domain, on tetracycline-inducible FlpIn cells (UniProt Q9BZW8 22-229)
T3 construct: extracellular domain; not shown: transmembrane domain of platelet-derived growth factor (so in the source) with a HA tag
T3 sequence (looked up): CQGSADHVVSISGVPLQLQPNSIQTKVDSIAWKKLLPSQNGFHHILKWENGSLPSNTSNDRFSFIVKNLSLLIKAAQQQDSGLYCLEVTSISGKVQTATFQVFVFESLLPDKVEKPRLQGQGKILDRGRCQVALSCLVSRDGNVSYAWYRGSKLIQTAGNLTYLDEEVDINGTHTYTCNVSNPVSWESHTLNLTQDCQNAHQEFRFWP

T4: TNFSF4 extracellular domain fused to a generic transmembrane domain, on tetracycline-inducible FlpIn cells (UniProt P23510 51-183)
T4 construct: extracellular domain; also called OX40L; not shown: transmembrane domain of platelet-derived growth factor (so in the source) with a HA tag
T4 sequence (looked up): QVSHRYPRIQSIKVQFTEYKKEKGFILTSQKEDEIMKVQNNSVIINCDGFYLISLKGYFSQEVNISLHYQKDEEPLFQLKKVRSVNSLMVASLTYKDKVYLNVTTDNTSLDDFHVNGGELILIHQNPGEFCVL

T5: NCR3 extracellular domain fused to a generic transmembrane domain, on tetracycline-inducible FlpIn cells (human, UniProt O14931 19-135)
T5 construct: extracellular domain; HEK293 FlpIn cells, expression on tetracycline addition; also called NCR3 over expression cell line; not shown: transmembrane domain of platelet-derived growth factor (so in the source) with a HA tag
T5 sequence (looked up): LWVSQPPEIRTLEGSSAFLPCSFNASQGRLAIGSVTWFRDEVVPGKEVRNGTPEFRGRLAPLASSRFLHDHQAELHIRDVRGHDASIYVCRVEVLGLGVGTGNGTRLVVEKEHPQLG

T6: NCR3 extracellular domain TEV-cleavable Fc-fusion, biotinylated (human, UniProt O14931 19-135, biotinylated (site not stated))
T6 construct: extracellular domain; Antigen of the phage selections and Fab-phage ELISAs; not shown: TEV cleavage site and Fc domain
T6 sequence (looked up): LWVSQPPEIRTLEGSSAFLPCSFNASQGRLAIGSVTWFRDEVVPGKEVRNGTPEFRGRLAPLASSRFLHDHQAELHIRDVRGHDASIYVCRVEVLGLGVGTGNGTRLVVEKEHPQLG

T7: NCR3 as expressed on NK cells (human, UniProt O14931 19-201)
T7 construct: whole, on cells; Primary human peripheral blood NK cells; NK92MI cells in the bispecific cytotoxicity assay; also called peripheral blood NK cells; NCR3+ NK92MI cells
T7 sequence (looked up): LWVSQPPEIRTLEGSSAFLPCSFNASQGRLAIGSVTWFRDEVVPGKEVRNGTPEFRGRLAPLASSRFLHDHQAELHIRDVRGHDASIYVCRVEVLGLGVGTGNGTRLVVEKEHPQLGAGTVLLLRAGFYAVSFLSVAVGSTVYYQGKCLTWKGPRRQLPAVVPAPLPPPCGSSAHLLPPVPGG


Tests used:
[1] = biological target: T1, NCR3 (antigen of the ELISA in the …); assay: ELISA, Fab on NCR3
[2] = biological target: T2, NCR3 on cell (on-cell binding in the …); assay: on-cell binding, Fab on NCR3
[3] = biological target: T8, TNFRSF9 extracellular domain fused to a generic transmembrane domain, on tetracycline-inducible FlpIn cells (UniProt Q07011 24-186); assay: flow cytometry, Fab on tetracycline-inducible cell lines over-expressing each ECD (FIG. S5)
T8 construct: extracellular domain; also called 4-1BB; not shown: transmembrane domain of platelet-derived growth factor (so in the source) with a HA tag
Description: (§1) To investigate the specificity of both activating and non-functional antibodies for their receptor targets, we developed a tetracycline-inducible cell line for each protein target—CD16, NCR1, NCR3, CD244, TNFRSF9, and TNFSF4. The ECDs of these proteins were fused to a generic transmembrane domain and were expressed upon tetracycline addition.
(§2) Titrations were performed on primary human NK cells or tetracycline induced overexpression cell lines as indicated. When tetracycline induced overexpression cell lines were used, cells were dosed with 10 μg/mL tetracycline for 2 days prior to staining. The starting concentration of each Fab or bispecific antibody was 1 μM, and serial 1:5 dilutions were performed. Antibodies were incubated with cells for 1 hr at 4° C., washed 2 times in 3% BSA in PBS pH 7.4, and stained for 30 min with an Alexafluor-647 conjugated goat anti-human IgG F(ab′)2 fragment (Jackson ImmunoResearch Laboratories) at a 1:50 dilution. After an additional 3 washes, cells were fixed and fluorescence was quantified using a CytoFLEX (Beckman Coulter). All flow cytometry data were analyzed using FlowJo software.

[4] = biological target: T9, CD16 extracellular domain fused to a generic transmembrane domain, on tetracycline-inducible FlpIn cells (human, UniProt P08637 17-208); assay: as above
T9 construct: extracellular domain; HEK293 FlpIn cells, expression on tetracycline addition; also called CD16 over expression cell line; CD16A; not shown: transmembrane domain of platelet-derived growth factor (so in the source) with a HA tag
T9 sequence (P08637 17-208): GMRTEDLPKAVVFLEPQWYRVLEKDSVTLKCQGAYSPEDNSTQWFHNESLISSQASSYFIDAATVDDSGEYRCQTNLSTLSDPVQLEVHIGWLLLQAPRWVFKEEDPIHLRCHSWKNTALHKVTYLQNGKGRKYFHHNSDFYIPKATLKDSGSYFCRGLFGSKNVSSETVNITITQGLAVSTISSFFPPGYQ
Description: as §1, §2

[5] = biological target: T10, NCR1 extracellular domain fused to a generic transmembrane domain, on tetracycline-inducible FlpIn cells (human, UniProt O76036 22-258); assay: as above
T10 construct: extracellular domain; HEK293 FlpIn cells, expression on tetracycline addition; also called NCR1 over expression cell line; not shown: transmembrane domain of platelet-derived growth factor (so in the source) with a HA tag
T10 sequence (O76036 22-258): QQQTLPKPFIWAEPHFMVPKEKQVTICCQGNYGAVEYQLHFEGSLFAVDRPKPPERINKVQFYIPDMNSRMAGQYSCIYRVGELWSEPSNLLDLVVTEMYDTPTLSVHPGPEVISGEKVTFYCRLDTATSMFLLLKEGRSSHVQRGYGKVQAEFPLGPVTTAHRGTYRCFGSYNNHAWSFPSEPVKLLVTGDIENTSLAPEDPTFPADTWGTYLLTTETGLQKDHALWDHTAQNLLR
Description: as §1, §2

[6] = biological target: T3, CD244 extracellular domain fused to a …; assay: as above
Description: as §1, §2

[7] = biological target: T4, TNFSF4 extracellular domain fused to a …; assay: as above
Description: as §1, §2

[8] = biological target: T5, NCR3 extracellular domain fused to a …; assay: as above
Description: as §1, §2

[9] = biological target: T11, CD16 extracellular domain TEV-cleavable Fc-fusion, biotinylated (human, UniProt P08637 17-208, biotinylated (site not stated)); assay: Fab-phage selection and Fab-phage ELISA on biotinylated ECD Fc-fusion (antigen column of Table S1)
T11 construct: extracellular domain; Antigen of the phage selections and Fab-phage ELISAs; also called CD16A; not shown: TEV cleavage site and Fc domain
T11 sequence (P08637 17-208): as the sequence (P08637 17-208) above
Description: (§3) To generate antibodies against these antigens, we expressed the extracellular domains (ECDs) of these proteins as TEV-cleavable Fc-fusions and performed Fab-phage display selections to enrich for high affinity antibody binders (FIG. S1), as previously described [Hornsby, M. et al., Mol Cell Proteomics. 14(10), 2833-2847 (2015)]. After each selection, Fab-phage ELISAs were performed to determine the relative affinity and selectivity of these binders for their antigen targets (FIG. S2).
(§4) TEV-cleavable Fc-fusion proteins were expressed and biotinylated in Expi293F cells using the standard expression protocol. Media were harvested after 4 days of expression and protein was purified by protein A affinity chromatography. Phage selections were performed according to previously established protocols1 with the Fab-phage Library E2. Non-specific binders were depleted from the library by incubating the phage pool with Fc-domain immobilized on streptavidin beads. Fab phage were selected using biotinylated Fc-fusions that were captured on streptavidin-coated magnetic beads, and were released through TEV elution. Each selection consists of four rounds. With each round, decreasing amounts of Fc-fusions (1 μM, 100 nM, 10 nM, and […]) were used. ELISAs were performed for 96 individual Fab-phage clones from the third or fourth rounds of selection to evaluate for affinity and selectivity.
(§5) ELISAs were performed as previously described1. In brief, Maxisorp plates were coated with 10 μg/mL of Neutravidin overnight at 4° C. Biotinylated target antigen (20 nM) was captured on the Neutravidin coated plates for 30 min, and then exposed to a 1:5 dilution of phage supernatants for 30 min. Bound phage were detected via a horseradish-peroxidase-conjugated anti-phage monoclonal antibody (GE Lifesciences).

[10] = biological target: T9, CD16 extracellular domain fused to a …; assay: flow cytometry, Fab on tetracycline-inducible cells over-expressing the ECD (FIG. S5)
Description: as §1, §2

[11] = biological target: T12, CD16 as expressed on NK cells (human, UniProt P08637 17-254); assay: flow cytometry, Fab titration on peripheral blood NK cells (FIG. S6)
T12 construct: whole, on cells; Primary human peripheral blood NK cells; PBMCs in the bispecific cytotoxicity assay; also called peripheral blood NK cells; PBMCs
T12 sequence (P08637 17-254): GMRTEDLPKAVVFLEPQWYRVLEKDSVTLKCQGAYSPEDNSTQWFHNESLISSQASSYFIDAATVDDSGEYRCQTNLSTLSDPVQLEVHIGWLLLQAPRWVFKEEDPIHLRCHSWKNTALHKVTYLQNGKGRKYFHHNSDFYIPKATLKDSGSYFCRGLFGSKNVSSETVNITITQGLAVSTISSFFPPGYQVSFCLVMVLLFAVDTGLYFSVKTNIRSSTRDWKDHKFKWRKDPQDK
Description: (§6) To evaluate the affinity of the selected antibodies for NK cells, we titrated the nine Fab clones on peripheral blood NK cells.
as §2

[12] = biological target: T6, NCR3 extracellular domain TEV-cleavable …; assay: Fab-phage selection and Fab-phage ELISA on biotinylated ECD Fc-fusion (antigen column of Table S1)
Description: as §3, §4, §5

[13] = biological target: T5, NCR3 extracellular domain fused to a …; assay: flow cytometry, Fab on tetracycline-inducible cells over-expressing the ECD (FIG. S5)
Description: as §1, §2

[14] = biological target: T7, NCR3 as expressed on NK cells; assay: flow cytometry, Fab titration on peripheral blood NK cells (FIG. S6)
Description: as §6, §2

EC50 [1] [nM]	EC50 [2] [nM]	binding result [3]	binding result [4]	binding result [5]	binding result [6]	binding result [7]	binding result [8]	binding result [9]	binding result [10]	binding result [11]	binding result [12]	binding result [13]	binding result [14]	Binder
1.63	2.27	no binding	no binding	no binding	no binding	no binding	–	–	–	–	–	–	–	NCR3.18 Fab (Fab, also called parental NCR3.18 clone; anti-NCR3 Fab #78) heavy: EVQLVESGGGLVQPGGSLRLSCAASGFNVSSSSIHWVRQAPGKGLEWVASISSSSGSTSYADSVKGRFTISADTSKNTAYLQMNSLRAEDTAVYYCARRISSYYMSYYDSFYYAGMDYWGQGTLVTVSSASTKGPSVFPLAPSSKSTSGGTAALGCLVKDYFPEPVTVSWNSGALTSGVHTFPAVLQSSGLYSLSSVVTVPSSSLGTQTYICNVNHKPSNTKVDKKVEPKSCDKTHT light: DIQMTQSPSSLSASVGDRVTITCRASQSVSSAVAWYQQKPGKAPKLLIYSASSLYSGVPSRFSGSRSGTDFTLTISSLQPEDFATYYCQQSSSSLITFGQGTKVEIKRTVAAPSVFIFPPSDSQLKSGTASVVCLLNNFYPREAKVQWKVDNALQSGNSQESVTEQDSKDSTYSLSSTLTLSKADYEKHKVYACEVTHQGLSSPVTKSFNRGEC
–	–	no binding	–	no binding	no binding	no binding	no binding	binds	binds	binds	–	–	–	CD16.03 Fab (Fab, also called anti-CD16 Fab #3) heavy: EVQLVESGGGLVQPGGSLRLSCAASGFNFSSYSIHWVRQAPGKGLEWVASIYSSSGSTSYADSVKGRFTISADTSKNTAYLQMNSLRAEDTAVYYCARWSYDQYYDQHGYYFYYWGFDYWGQGTLVTVSSASTKGPSVFPLAPSSKSTSGGTAALGCLVKDYFPEPVTVSWNSGALTSGVHTFPAVLQSSGLYSLSSVVTVPSSSLGTQTYICNVNHKPSNTKVDKKVEPKSCDKTHT light: DIQMTQSPSSLSASVGDRVTITCRASQSVSSAVAWYQQKPGKAPKLLIYSASSLYSGVPSRFSGSRSGTDFTLTISSLQPEDFATYYCQQSSAELITFGQGTKVEIKRTVAAPSVFIFPPSDSQLKSGTASVVCLLNNFYPREAKVQWKVDNALQSGNSQESVTEQDSKDSTYSLSSTLTLSKADYEKHKVYACEVTHQGLSSPVTKSFNRGEC
–	–	no binding	no binding	no binding	no binding	no binding	–	–	–	–	binds	binds	binds	NCR3.12 Fab (Fab, also called anti-NCR3 Fab #72) heavy: EVQLVESGGGLVQPGGSLRLSCAASGFNISSSSIHWVRQAPGKGLEWVAYISSSSGYTSYADSVKGRFTISADTSKNTAYLQMNSLRAEDTAVYYCARYSYFYGGYFYWTSWGAFDYWGQGTLVTVSSASTKGPSVFPLAPSSKSTSGGTAALGCLVKDYFPEPVTVSWNSGALTSGVHTFPAVLQSSGLYSLSSVVTVPSSSLGTQTYICNVNHKPSNTKVDKKVEPKSCDKTHT light: DIQMTQSPSSLSASVGDRVTITCRASQSVSSAVAWYQQKPGKAPKLLIYSASSLYSGVPSRFSGSRSGTDFTLTISSLQPEDFATYYCQQSSYWPFTFGQGTKVEIKRTVAAPSVFIFPPSDSQLKSGTASVVCLLNNFYPREAKVQWKVDNALQSGNSQESVTEQDSKDSTYSLSSTLTLSKADYEKHKVYACEVTHQGLSSPVTKSFNRGEC
–	–	no binding	no binding	no binding	no binding	no binding	–	–	–	–	binds	binds	binds	NCR3.19 Fab (Fab, also called anti-NCR3 Fab #79) heavy: EVQLVESGGGLVQPGGSLRLSCAASGFNVYSYSIHWVRQAPGKGLEWVASIYSYYGSTSYADSVKGRFTISADTSKNTAYLQMNSLRAEDTAVYYCARWYQYYYIGTAAMDYWGQGTLVTVSSASTKGPSVFPLAPSSKSTSGGTAALGCLVKDYFPEPVTVSWNSGALTSGVHTFPAVLQSSGLYSLSSVVTVPSSSLGTQTYICNVNHKPSNTKVDKKVEPKSCDKTHT light: DIQMTQSPSSLSASVGDRVTITCRASQSVSSAVAWYQQKPGKAPKLLIYSASSLYSGVPSRFSGSRSGTDFTLTISSLQPEDFATYYCQQQWYPLITFGQGTKVEIKRTVAAPSVFIFPPSDSQLKSGTASVVCLLNNFYPREAKVQWKVDNALQSGNSQESVTEQDSKDSTYSLSSTLTLSKADYEKHKVYACEVTHQGLSSPVTKSFNRGEC
